These substances were tested against Patched 1 (Ptch1) receptor (mouse (endogenous in C3H10T1/2)) (UniProt Q61115).
Sequence of UniProt Q61115 (Q61115 whole entry): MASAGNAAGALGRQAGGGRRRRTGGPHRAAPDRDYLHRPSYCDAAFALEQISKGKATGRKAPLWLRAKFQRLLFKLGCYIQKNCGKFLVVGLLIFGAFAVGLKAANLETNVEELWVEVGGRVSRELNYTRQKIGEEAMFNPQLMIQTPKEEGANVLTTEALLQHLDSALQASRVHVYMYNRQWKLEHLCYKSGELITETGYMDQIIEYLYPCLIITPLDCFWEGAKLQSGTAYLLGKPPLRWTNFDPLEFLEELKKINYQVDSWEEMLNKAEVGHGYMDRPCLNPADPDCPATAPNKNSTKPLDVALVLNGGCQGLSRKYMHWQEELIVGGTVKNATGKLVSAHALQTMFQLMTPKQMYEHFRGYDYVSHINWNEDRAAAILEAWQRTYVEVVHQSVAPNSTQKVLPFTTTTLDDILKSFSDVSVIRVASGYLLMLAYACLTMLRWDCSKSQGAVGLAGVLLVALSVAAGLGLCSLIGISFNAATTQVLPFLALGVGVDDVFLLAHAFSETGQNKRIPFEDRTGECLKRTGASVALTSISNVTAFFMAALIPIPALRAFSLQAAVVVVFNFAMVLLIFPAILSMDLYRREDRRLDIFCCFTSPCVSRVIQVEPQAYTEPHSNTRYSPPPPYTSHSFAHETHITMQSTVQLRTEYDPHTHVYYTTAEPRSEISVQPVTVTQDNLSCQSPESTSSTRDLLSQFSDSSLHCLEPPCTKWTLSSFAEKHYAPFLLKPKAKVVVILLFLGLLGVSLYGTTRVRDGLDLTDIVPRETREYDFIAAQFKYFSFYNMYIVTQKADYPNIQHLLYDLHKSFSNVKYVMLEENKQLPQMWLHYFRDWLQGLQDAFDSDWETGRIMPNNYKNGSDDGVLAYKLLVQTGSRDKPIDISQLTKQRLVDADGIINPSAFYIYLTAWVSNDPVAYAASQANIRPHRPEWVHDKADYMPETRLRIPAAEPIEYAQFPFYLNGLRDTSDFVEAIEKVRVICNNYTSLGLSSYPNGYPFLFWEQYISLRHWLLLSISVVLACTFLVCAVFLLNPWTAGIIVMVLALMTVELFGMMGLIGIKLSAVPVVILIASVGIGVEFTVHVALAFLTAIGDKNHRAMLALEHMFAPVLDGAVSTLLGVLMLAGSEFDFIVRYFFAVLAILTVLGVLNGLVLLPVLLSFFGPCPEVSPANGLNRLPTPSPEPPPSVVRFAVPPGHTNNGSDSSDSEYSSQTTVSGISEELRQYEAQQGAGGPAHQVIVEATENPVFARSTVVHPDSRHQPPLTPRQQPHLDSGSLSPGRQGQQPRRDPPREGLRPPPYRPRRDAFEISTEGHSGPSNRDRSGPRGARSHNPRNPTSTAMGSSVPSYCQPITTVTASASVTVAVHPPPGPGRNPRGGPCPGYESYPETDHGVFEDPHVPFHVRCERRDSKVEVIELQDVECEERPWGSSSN
“Shh^C, soluble depalmitoylated (N-terminally processed), C-cholesteroylated Sonic hedgehog released in the presence of 10% serum (ligand)” gave an Alp1 activity of C3H10T1/2 cells (differentiation into osteoblasts) of 1.5 au and an Alp1 activity of C3H10T1/2 cells (differentiation into osteoblasts), with the Shh-neutralising antibody 5E1 (1 µg/mL) of 0.26 au. Work on “^C25S;Δ26–31Shh^C (from UniProt Q62226 25-198) (ligand)” yielded an Alp1 activity of C3H10T1/2 cells (differentiation into osteoblasts) of 1.41 au. “^C25S;Δ26–32Shh^C (from UniProt Q62226 25-198) (ligand)” was tested, and the Alp1 activity of C3H10T1/2 cells (differentiation into osteoblasts) was 1.26 au. In the case of “^C25S;Δ26–33Shh^C (from UniProt Q62226 25-198) (ligand)”, the Alp1 activity of C3H10T1/2 cells (differentiation into osteoblasts) is reported as 1.65 au. For “^C25S;Δ26–34Shh^C (from UniProt Q62226 25-198) (ligand)”, the Alp1 activity of C3H10T1/2 cells (differentiation into osteoblasts) was 0.7 au. “^C25S;Δ26–35Shh^C (from UniProt Q62226 25-198) (ligand)” gave an Alp1 activity of C3H10T1/2 cells (differentiation into osteoblasts) of 0.38 au. For “^C25S;Δ26–36Shh^C (from UniProt Q62226 25-198) (ligand)”, the Alp1 activity of C3H10T1/2 cells (differentiation into osteoblasts) was 0.39 au. Substance “^C25S;Δ26–37Shh^C (from UniProt Q62226 25-198) (ligand)” has an Alp1 activity of C3H10T1/2 cells (differentiation into osteoblasts) of 0.46 au. Substance “^C25S;Δ26–38Shh^C (from UniProt Q62226 25-198) (ligand)” has an Alp1 activity of C3H10T1/2 cells (differentiation into osteoblasts) of 0.36 au. Substance “^C25SShh^C, unpalmitoylated cholesteroylated soluble Shh (from UniProt Q62226 25-198) (ligand)” has an Alp1 activity of C3H10T1/2 cells (differentiation into osteoblasts) of 1.71 au and an Alp1 activity of C3H10T1/2 cells (differentiation into osteoblasts), with the Shh-neutralising antibody 5E1 (1 µg/mL) of 0.21 au.
